In FireProtDB (doi:10.1021/bi050502v):

Settings: Locusta migratoria, pH 7.4, CD, Na2HPO4 KH2PO4 10 mM 2 mM, NaCl 127 mM, reversible: yes, whole UniProt chain shown

B1: Apolipophorin-3b wild type, P10762 (protein)
chain: MNTLLAVLMLAVAAQARPDAAGHVNIAEAVQQLNHTIVNAAHELHETLGLPTPDEALNLLTEQANAFKTKIAEVTTSLKQEAEKHQGSVAEQLNRFARNLNNSIHDAATSAQPADQLNSLQSALTNVGHQWQTSQPRPSVAQEAWAPVQSALQEAAEKTKEAAANLQNSIQSAVQKPAN
25 °C, GdnHCl
  denaturant midpoint (higher = more stable): 0.51 M
  unfolding free energy: 2.05 kcal/mol
Thermal
  Tm: 53 °C
